From a protein production outcome set (Wang et al. 2014)

Test: label from the status in PepcDB records
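Further: failed if final PepcDB status was selected cloned or expressed and not failed if soluble or beyond.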

| Sequence | protein production |
| --- | --- |
| MLFIKPADLREIVTFPLFSDLVQCGFPSPAADYVEQRIDLNQLLIQHPSATYFVKASGDSMIDGGISDGDLLIVDSAITASHGDIVIAAVDGEFTVKKLQLRPTVQLIPMNSAYSPITISSEDTLDVFGVVIHVVKAMR | failed |
| MLFISATNTNAGKTTCARLLAQYCNACGVKTILLKPIETGVNDAINHSSDAHLFLQDNRLLDRSLTLKDISFYRYHKVSAPLIAQQEEDPNAPIDTDNLTQRLHNFTKTYDLVIVEGAGGLCVPITLEENMLDFALKLKAKMLLISHDNLGLINDCLLNDFLLKSHQLDYKIAINLKGNNTAFHSISLPYIELFNTRSNNPIVIFQQSLKVLMSFALK | not failed |
| MLFNKMKNYKGFTAVKELWLLNLFILSVFTLSFSVSAASNDVSINNNELIGISYNTIQSDQIVVVFSFTKNITSLPIVKTSMTPAFVEVTFDANTYGKDLTETLINHAGIKGINLDAKTGKVVALISLEKLAVFDVSLNNEKEFSITFNYGESAEIVETLSPAGDDFINSIESIDFRLNGDNEGQILVYLKDSMLAADVNDKLGKLNVEFHNTEIIDDLLYKLDVTDFGTLVTSIETFKEGRNARLVIDVESGFIFTQKQEENLFILTVKKKPEKAPTYLGDTDDFTGRSISLSFQDIPVRTVLQIIADYNEFNLIISDTVTGNITLRLDGVPWDQALSIILKVKGLDKRMQGNILMVAPSDELAAREAQSLQAKQQVEELATLYSEYLQINYAKAAEFSELIKNEDTSILSDRGSVSVDERTNTLLIRDTAKSIEDIKRMITILDVPVRQVVIEARMVTVKDNMNEELGIRWGVTNTDGEFATSGSIEGASSANGTRGVTTPGVGQVPTIGDGLNVNLPVANAAGTIAFQVARLANGTILDLELSALEKENKGEVIASPRITTANQKEAYIEQGVEIPYQEAASSGATATQFKKAVLSLTVTPHITPDDKIILDLVVTQDTISDITSGFAPAIDTQRIGTQVLVNNGETIVLGGIYQQAIISTVSKIPILGDIPYLGWLFRNSSQLNEKKELLIFVTPRIVTEHF | failed |
| MLFNSFEFMLLFLPIAVIGYFLLQKVNKNFAKLFLVGMSLYFYAYFEVKYLLLIGVSLFTNAFIGQQIIQKINQKTRKVFLIVGLVFNISLLGYFKYSDFFLDNINTLFGTDVPLLKLLLPLGISFITFQKIGFLVDCYKRELTKFNFIDFCLFVTFFPQLIAGPIVHHSKVLPQFQDESKRRPNIENITKGLYIFGIGLTKKVVIADSLAQWADFGFSNVNQLSTTDAWVSSLAYTLQLYFDFSGYCDMAIGAALLFNIILPINFFSPYKSLSIQDFWRRWHMTLGRFFTQYVYIPLGGSRKGQIRTYLNLFTIFLISGIWHGAGWTFVIWGVLHGLAIVIHRLFKNLGGKMPKFIAWILTMGFVHVTWVFFRATSVEDALTMLNRMFNVNYLHIQTALIQFRPETLTGVSIMDNLIYSICNLFPFQVTGDHFNFQTILYLAIGIAIVLFTKNSIEKLESFRPKPIYALALASMFILSLMYLNRVSSFLYFNF | failed |
| MLFSSIVFLFYFFPAVLLLYYICSFSRRLQNVVLLFASLVFYAWGDFSFLGIMIVSIIINYILGLLVGKFREKKLLAKFFIFVTCAYNLGMLFVFKYLGFVVKNIDKVGNYKLSIPNIALPIGISYFTFKAISYVVDVYKNKVEAEKNPLNIGLYIAFFPEVISGPISRYVKVGEQIKNREHSWQKFSVGACRFITGLGKKVLISNSVSIIADKVFTMNTNGPVPVTLAWLGSIAYTIQIFFDFSGYSDMVIGLGLMFGFKIDENFNYPYISKSITEFWRRWHISLSSWFRDYIYIPLGGSRVDNKDKLIRNLFIVWVSTGVWHGAEWTFIMWGFLNFVFIALEKVFSFDDLKINPVIKHIYALFIINLGWVLFRSENLIQAGKYVACMFGLRGNAFWSNYTFMFVKENAVIFIAAVILSMPIAKKVNKLVYDKVPGYKILNGVYPIAVLGVFFVCISYLIKGTYNPFIYLKF | failed |
| MLFTMMVSLYTSRVVLATLGVEDFGIYNVVGGVVTMFAIISTSLSSAISRFITIELGKGDLRRLKTVFSTAVVIQFLMALVVVILAELIGVWFLNNKMNIPEVRMNAANWVLQFSIFTFGVNLICIPFNALIIAHERMSAFAYVSILEVSLKLLIVYLLVLMSVDKLIVYGALLLVVAIVITFAYFIYCRRHFKECKCFCRIDRFLLKRMLSFSGWNFIGASSAILRDQGVNIAINLFCGPTVNAARGMAVQVNHAINSFAQNFMTALNPQITKSFAVGDSKYMFTLIFQGARLSFYMLLFLSLPVLMSTEYILSIWLKIVPDYTIIFVRLVLIFAMCESISNPLITAMLATGSIRNYQIVVGGMQMMNFPISYILLERGYAPEITLYVAIGISLCCLALRLFMLRSMIQLPVRSYMKNVFFNICAVTIFSVAIPYLISLRLQSSFYSFLILSFSCIICSFMAIFFVGCKASERVFVVDQVRKLIKNNL | failed |
| MLFTNLDGVRNVVPVGHRQRRARPVGAGDVRAEKSLRYHLQEHGRLPLNEAVAVLSDVAEALADLKDREIVHRDLKPENILLLGGRRCLADFGIARYAEATIAKHTLKLAGTLAYMAPERWNNQRAASASDIYAPGVVAYELLEETPPFTGPYEHDYHDQHLHGPVRPSPQLRPSWRR | failed |
| MLGELDLATVILMQKCSYIVGLLSFIYLKMSNRGLPGPVHLAAGFAAMTVGSTLAGYGEWKILSPALWELGSVLFGIAGYALIWLGLKTLSDGRFVNRKTILFTCLVALLAIGVALQVAGNNTFRAALFNGCAALAYLGGAGVLFARWRKEPLLSRLALGAITGVSGLISLAVMKSVLFPGYASINLVTAFFFIIMLNFAISLFVMMLVAERSERKLLVLANTDPLTGVKNRRFFFQTMPAAPDPADAAMLLDIDHFKSINDRFGHAVGDSVLQEVARRISGSIRGGDVLARYGGEEFIIFLPGAGVDKACMIGERIRDAVAINEVDCGGLRVGVTISIGVATTGDMRCDLQMLAEKADRALYRAKTEGRNCVREALAA | failed |
| MLGGQYYLIAFILAVIVVWFTTPLINHWGRRAGYVDQPSARKMHHRPMVRLGGVSIFLGSLVALLVVWNLGAFGAMSTKGEWEVWGVVLGGLAFFGIGLFDDLFDLSPFSRLLAQVAIASVVWNMGVRIDFFTLPFLGNLVYLNILSLPITVIWLVGLANAINWIDGLDGLAAGVCGIAAVVLFVLCLFMEQSEAALIAAALAGGALGFLRYNFNPAQIFMGDGGAYFMGFTLGAVAVIGLVKVAAMATVAVTAVLLPYLVLAVPILDMSVVILSRVIKGKSPFKADKGHLHHRLINAGISHRLTVLFIYALTLWAGSLALGFSNIPSGWGFAIGATVLLIYLGWQVWRNSRNVGEQD | failed |
| MLGSQCAASEPVPAHSLWRGQDMSPNMRGALLMTGSMAAFTCNDTVVKLLGSEMPLFQILVLRSGLSAVWIYFLARRLGALHLRFGRRDRMLVALRCLSEIGATYFFLTALLNMPLANVTAVLQMLPLTVTLGAALFFGEQVGWRRMLAIGLGFCGMLLIVRPGPDGFTLHAIYAMAAVICVTARDLVTRRMSSHVPSLTVTLATALSVMSFGLVGSLTVDWVPLTTDLGLGLLAASLLVLGGYLFSVMVMRIGEVGFVAPFRYSSLLWALVLGWLVFGDWPDPLTMAGVALVVATGLFTLFRERASRHRG | failed |
| MLGYAAMNRTLRERDPPRRCNRDMQKKTWESEGIEYAATLAAQNFEDLREILLWNRDHGIDFYRCSSKLVPWNSQFDITALPNYERVQSLAAECGALVQDNDMRLTFHPSHWCKLASESDDTVARSVESVEHHGRWLDLMGVPRSPRYAINVHIGAHYGDKAATADRFCDVVSDLAPRARDRLTVENDDTESLWSVQELVTDVASQVDIPVTFDYHHHSFTDRGLTYREGFELARETWDGARPITHYSEPARLRPDSDASPQAHADHVAAVPTWL | failed |
| MLHFQHTSIINAPPEVVWKFHERPDILQLLTPPWQPVRVVRREGGLEVGAITEFKLFLGPVPLTWLARHTECDKYRLFTDTQISGPFESWIHRHQFQPENGKTKLIDDVSYVMPGGETIEFIGGWLIQAQLEAMFRYRHYVTKRECE | failed |
| MLHKVVQVRLYPSIEQKVQLAQAFGCSRWWWNYALNKSIETYKETGKGLTRAALNALLPNLKKAEDTCWLADCYSQVLQATTLNLTTAYKNFFEKRAGFPKFKSKHGKQSIQYPQNVKIVDGESSPVRAASRREGGFPSVGNWRSRSVSEGFTRKGNIKLPGNIGIVKAKIHRPIEGKIKTVTVSKTPSGKYLASILTEVEGVSTPLNTSEKPAITEGKIYGIDLGLKHFAVVSDGEKISKYDNPKHLAKHEKNLKRKQKKLARKVKGSNSRNRYRKVVAKVYERVSNSRQDFLHKLSYKLVSDSQAVIVENLHLLGMVRNHKLAKSISDAGWGMFTNFLAYKLERKGGKLVEIDRWFPSSKLCSNCFYQIGEMPLDVREWTCPSCGTHHDRDGNAAINIRAEGIRMIKAEGSAVSAVGGEVSPKLGRKSKFGHSPVITEADTVLGTPSQCG | failed |
| MLHSTAGWKNMDFKRFSLLIATRTILAMLTLIFLTQAIMSDGYHATVLLLSAVLLIQFFEITRFISKTNAELVRFFEAVRHADFSQRFELKSLGTGFDELGSTFTDILKRIQRVRSNQEAELRHIKAIIEHVPVPLLSIDHNGKITLWNNSVRRLFGTNAVTHIDDMAQFNEDFPKKLQSILAGERTLVHITIDDMEHKLIISATEITTATQQETLLSMQDIQSELALAQLQAWQDLVSVLTHEIMNSITPVASLAKTAVDLVQDVQEKTRTLPAITNEITEELDDVLGAVKTVARRSDGLMQFVTSYRRLTRLPSPNKKTISVATIFDHVTTLAKQNWQKDNIELTASITPQALDIHVDPDMIEQILLNLLLNAEHALITTAGVIEKKNSTPKIALNAFLNVRGHVIIEVADNGKGIENKNMTQIFVPFFTTKKEGSGVGLALTRQVMLAHNGKVAVRNNSQGGATFSLTF | failed |
| MLHTEKVEYVNQAHEDITGIARDKSIGTNLRDLTFFRQHNALAEQTLAKIFRGDQAKGEVQFSRTDGSRYWLKYIVSQFITDRGNHYALVSGEENSDEHNYKAELEHHHHHH | not failed |
| MLHYQIEFDDYRQHLVHVTLRFLADPNQELWLPTWIPGSYLIREFSKHIESVQAYDEAGRILEIKKQQKNRWRLFNTDHELITVEYDAYAYDLSVRGAYVDQTRLYINPACVCLALGGQEEKACEVELFLPQELKHFQLATGLPSKSLVKGRFTLKAENYDQLIDSPFELAEQTRFSFEAGNIAHEMVISGIHATNTERLKNDLEKICATEVALFGSAPFQNYTFMTMATGNSYGGLEHCNSTSLIIPRTDLPKLNEPEEPSEDYQRFLGLCSHEYFHSWLVKFIRPENFARYNLNQESYTSLLWIFEGFTSYYDDLILLRSGVISQESYLKLLKAQIDRYLQNPGRQIQSVAESSFDAWIKFYRQDENSNNAGTSYYNKGCLVALCLDLGLRLRGSSLDALLRLLYQNTEKGVQVNERTIFELCQQLTGDSWIEQINHLINTTDELPLDQLFPEFGLSYALKHDKKMPFGMKLQDKPEGVMVQQVNRYGAAATAGLSAQDVIIAIDGLKASEKLLATYAKQQGIITILAFRRDELMSFEVERSTIDLAEVELVVQDQSKADHWLKV | failed |
| MLHYVHVGNKKSPNTLLFVHGSGCNLKIFGELEKYLEDYNCILLDLKGHGESKGQCPSTVYGYIDNVANFITNSEVTKHQKNITLIGYSMGGAIVLGVALKKLPNVRKVVSLSGGARFDKLDKDFMEKIYHNQLDNNYLLECIGGIDNPLSEKYFETLEKDPDIMINDLIACKLIDLVDNLKNIDIPVKAIVAKDELLTLVEYSEIIKKEVENSELKIFETGKHFLLVVNAKGVAEEIKNFI | not failed |
